In patent US9201073B2, “Methods and compositions for enhancing proteasome activity” (President and Fellows of Harvard College, priority 2007, dated 2015):

Tests used:
[1] = molecular target: T1, ubp6Δ proteasomes (Saccharomyces cerevisiae, UniProt P30656+P43588); experiment: In vitro ub-cyclin B deubiquitination/degradation assay with purified yeast proteasomes; type: biochemical; settings: for inhibition of cyclin B degradation: ubp6Δ proteasomes 135 nM, recombinant Ubp6 or Usp14 species 540 nM, Ubl and Ubl-MBP 1.35 μM, preincubated 5 min, immunoblot
T1 construct: proteasomes purified from ubp6Δ mutants; TEV-ProA (TEV site + protein A), chromosomally integrated (C); made in house
Experimental: Proteasomes (135 nM) were incubated with ub-cyclin Bin the presence of 1 mM ATP and buffer (50 mM Tris [pH 7.51, 1 mM EDTA, 5 mM MgCl2) for the indicated times. Reactions were terminated by the addition of 5×SDS Laemmli loading buffer (Leggett, et al. (2002). Multiple associated proteins regulate proteasome structure and function. Mol. Cell. 10, 495-507) and boiled for 5 min. Where indicated, recombinant, purified Ubp6 or Usp14 species (540 nM) were preincubated with proteasomes for 5 min prior to the reaction. […] Unless otherwise noted, immunoblots were visualized with anti-cyclin B1 polyclonal antibodies. Polyclonal antibodies recognizing Ubp6, Rpn5, Rpn12, and ubiquitin were used as indicated. Ub-cyclin B was added in molar excess over proteasome, generally on the order of 25-fold, except for FIGS. 4C, 6A and 6B, where the substrate:enzyme ratio was increased by a factor of five.
In the experiments of FIGS. 1, 4 (except FIG. 4C), and 6C, time points were sampled after the preparation of a single reaction mixture. The zero time points therefore reflect a lag which represents the amount of time required to sample the first time point after having prepared the reaction mixture. […] In the experiments of FIGS. 2, 4C, and 6 (except 6C), each time point was carried out as an independent reaction. The zero time points were prepared in the presence of 5×LLB, and accordingly, no processing could occur before time zero.
Ubiquitination of cyclin B was carried out. Briefly, for each 30 μl reaction, Anaphase Promoting Complex (APC) was immunopurified from 600 μl of mitotic Xenopus egg extract with 12 μg of anti-Cdc27 antibodies (AF3.1, Santa Cruz Biotechnologies, Santa Cruz, Calif.) bound to 30 μl of Affiprep Protein A beads (Bio-Rad, Hercules, Calif.). Beads were washed three times with XB high salt (10 mM potassium HEPES pH 7.7, 500 mM KCl, 0.1 mM CaCl2, 1 mM MgCl2), two times with XB (same but with 100 mM KCl), and then three times into the reaction buffer (20 mM Tris pH 7.5, 100 mM KCl, 2.5 mM MgCl2, 2 mM ATP). Ubiquitination reactions contained immunoprecipitated APC on 30 μl of beads, and 30 μl of a mix containing recombinant MBP-human E1 at 200 μg/ml, histidine-tagged Ubc4 at 66 μg/ml, ubiquitin at 1.25 mg/ml, and 50 μg/ml of histidine-tagged cyclin B1/cdc2 complex expressed in baculovirus. Reactions were incubated for 90 minutes at 22° C. with agitation on a shaker at 1,000 RPM. Reaction supernatants were combined with the eluate from the wash of beads with 20 μl of reaction buffer. Reactions were either used fresh after preparation or frozen at −80° C. until use with purified proteasomes.

[2] = molecular target: T2, proteasomes (Saccharomyces cerevisiae, UniProt P30656+P43588); experiment: Proteasome-dependent hydrolysis of suc-LLVY-AMC; type: biochemical, yeast; settings: o-PA treatment
T2 construct: A previously described procedure for purification of the proteasome; TEV-ProA (TEV site + protein A), chromosomally integrated (C); made in house
Description: FIG. 1E is a graph depicting proteasome-dependent hydrolysis of suc-LLVY-AMC (SEQ ID NO: 1), a ubiquitin-independent fluorogenic proteasome substrate. Error bars reflect standard deviations.
The next studies were designed to determine whether the observed difference in cyclin B degradation was due specifically to Ubp6. Proteasomes were examined by Coomassie blue staining (FIG. 1D) and native gel electrophoresis, and no evidence for either an unexpected compositional difference or a gross structural abnormality in mutant proteasomes was found (see also Guterman and Glickman. (2004). Complementary roles for Rpn11 and Ubp6 in deubiquitination and proteolysis by the proteasome. J. Biol. Chem. 279, 1729-1738).

[3] = molecular target: T3, Ubp6 (Saccharomyces cerevisiae, UniProt P43593); experiment: Ub-AMC hydrolysis by Ubp6 treated with ubiquitin-vinyl sulfone; type: biochemical, yeast; settings: Ub-VS 2.5 μM; Ub-AMC 0.5 μM
T3 construct: GST (N, cleaved yes); made in house; host or cells: bacteria (pGEX-4T-1, plasmid pDL74)
T3 sequence (P43593 1-499): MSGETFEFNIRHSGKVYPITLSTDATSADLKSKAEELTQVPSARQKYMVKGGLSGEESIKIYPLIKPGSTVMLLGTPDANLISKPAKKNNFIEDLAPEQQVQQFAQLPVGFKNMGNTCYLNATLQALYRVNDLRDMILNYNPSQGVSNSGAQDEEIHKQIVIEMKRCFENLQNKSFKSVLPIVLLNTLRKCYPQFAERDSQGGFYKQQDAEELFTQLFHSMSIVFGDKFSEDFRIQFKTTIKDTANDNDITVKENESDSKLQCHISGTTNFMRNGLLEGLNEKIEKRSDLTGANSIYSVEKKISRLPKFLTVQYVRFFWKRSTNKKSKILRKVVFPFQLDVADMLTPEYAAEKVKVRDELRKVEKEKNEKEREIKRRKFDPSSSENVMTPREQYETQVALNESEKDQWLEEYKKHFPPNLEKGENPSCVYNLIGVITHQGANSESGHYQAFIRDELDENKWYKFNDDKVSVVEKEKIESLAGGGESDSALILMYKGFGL
Experimental: FIG. 9A depicts the result of an in vitro ub-cyclin B assay carried out with ubp6Δ proteasomes (135 nM) supplemented with wild-type Ubp6 (540 nM) and ubiquitinvinyl sulfone (2.5 μM), as indicated. The lower panel is anti-Ubp6 immunoblot showing modification of Ubp6 by Ub-VS. Ubp6 was present in four-fold molar excess over proteasome, and thus only a fraction of Ubp6 protein was modified.
FIG. 9B depicts the results of Ub-AMC (0.5 μM) hydroylsis assay.
As an alternate approach to assay non-catalytic inhibition, ubiquitin-vinyl sulfone (Ub-VS), an irreversible active site inhibitor of Ubp6, was used. Residual Ub-AMC hyrdolyzing activity in the presence of Ubp6-Ub-VS is at the level of background in this assay. […] Indeed the large excess of substrate over Ubp6 (see Methods described in Example 1) is inconsistent with a model in which Ubp6 inhibits degradation by sequestering substrate. […] Although these functions are distinct, each requires both the Ubl domain and the C-terminal domain. The Ubl domain serves in both cases to target Ubp6 to the proteasome, and that both functions are obligatorily executed on the proteasome.

[4] = molecular target: T1, ubp6Δ proteasomes; experiment: Quantitation of proteasome inhibition by quantitative mass spectrometry of cyclin B; type: biochemical, yeast; settings: 20-minute incubation
Experimental: A standard substrate degradation assay was carried out, and analyzed in parallel by SDS-PAGE followed by Coomassie blue staining and immunoblot with anti-cyclin B antibody. Immunoblots were used to identify and excise the cyclin B-containing regions of the Coomassie-stained gel, and the lanes were analyzed by mass spectrometry.
To quantify the extent of proteasome inhibition by Ubp6, a method of quantitative mass spectrometry was utilized. After a 20-minute incubation, approximately half of the total cyclin B was degraded by ubp6Δ proteasomes (FIG. 4C).

[5] = system: Ub-AMC; experiment: Ub-AMC hydrolyzing activity of purified recombinant Ubp6 species; type: biochemical; settings: purified recombinant enzyme 0.5 μM
Experimental: FIG. 8 is a graph depicting that the Ubp6-C118A mutant lacks deubiquitinating activity. Ub-AMC hydrolyzing activity of purified recombinant wild-type Ubp6 or Ubp6-C118A (0.5 μM). Ub-AMC, no enzyme control.

[6] = molecular target: T4, RP purified from a ubp6Δ mutant (Saccharomyces cerevisiae, UniProt P43588); experiment: Processing of ub-cyclin B by regulatory particle (RP); type: biochemical, yeast; settings: RP 135 nM, four-fold molar excess of Ubp6 species
T4 construct: TEV-ProA (TEV site + protein A), chromosomally integrated (C); made in house
Experimental: FIGS. 6A and 6B depict the processing of ub-cyclin B by RP (ubp6Δ) in the presence or absence of purified Ubp6. Reactions were visualized by immunoblotting with anti-cyclin B antibody or anti-ubiquitin antibody, as indicated.
FIG. 12 is an illustration depicting the RP-mediated disassembly of Ub-cyclin B conjugates by Ubp6. Proteasome regulatory particle (135 nM) purified from a ubp6Δ strain was combined with a four-fold molar excess of Ubp6, Ubp6-ublΔ, or Ubp6-C118A, and Ub-Cyclin B, and incubated for the indicated times. Reactions were visualized by immunoblot with anti-ubiquitin antibody. *represents a non-ubiquitin immunoreactive band.
A previously described procedure for purification of the proteasome (Leggett, et al. (2002). Multiple associated proteins regulate proteasome structure and function. Mol. Cell. 10, 495-507) was modified by adding 1 mM ATP and 5 mM MgCl2 to all purification buffers, and by washing resins with 100 bed vol. of buffer containing 50 mM NaCl, as opposed to 50 bed vol. of buffer containing 100 mM NaCl. RP was purified in the presence of ATP and MgCl2 as described (Leggett et al., 2002).
Proteasomes (135 nM) were incubated with ub-cyclin Bin the presence of 1 mM ATP and buffer (50 mM Tris [pH 7.51, 1 mM EDTA, 5 mM MgCl2) for the indicated times. […]

[7] = molecular target: T5, proteasome (Saccharomyces cerevisiae, UniProt P30656+P43588); experiment: Ub-Cdc34 binding assay (electrophoretic mobility shift of proteasome); design: species or system yeast; settings: proteasome 4 pmoles, ub-Cdc34 8 pmoles, Ubp6-C118A 8 pmoles
T5 construct: A previously described procedure for purification of the proteasome; TEV-ProA (TEV site + protein A), chromosomally integrated (C); made in house
Experimental: Binding of ubiquitinated-Cdc34 (8 pmoles) to proteasome (4 pmoles) was carried by native gel electrophoresis followed by overlay of the fluorogenic activity-based probe, suc-LLVY-AMC (SEQ ID NO: 1), as previously described (Elsasser, et al. (2004). Rad23 and Rpn10 serve as alternative ubiquitin receptors for the proteasome. J. Biol. Chem. 279, 26817-26822). Ubp6 or Ubp6-C118A (8 pmoles) were preincubated with proteasomes prior to substrate addition.

c1cnc2c(c1)ccc1cccnc12 [o-PA, o-phenanthroline, reference compound]
deubiquitination and degradation of cyclin B ([1]; ubp6Δ proteasomes, o-PA 10 mM added 10 min prior to cyclin B): strongly inhibited
LLVY-hydrolysis by proteasomes [2]: no effect

ubiquitin-vinyl sulfone [Ub-VS]
catalytic activity of wild-type Ubp6 as measured by Ub-AMC hydrolysis [3]: completely eliminated

B1: Ubp6-C118A: catalytically inactive point mutant of Ubp6 (protein)
chain: MSGETFEFNIRHSGKVYPITLSTDATSADLKSKAEELTQVPSARQKYMVKGGLSGEESIKIYPLIKPGSTVMLLGTPDANLISKPAKKNNFIEDLAPEQQVQQFAQLPVGFKNMGNTAYLNATLQALYRVNDLRDMILNYNPSQGVSNSGAQDEEIHKQIVIEMKRCFENLQNKSFKSVLPIVLLNTLRKCYPQFAERDSQGGFYKQQDAEELFTQLFHSMSIVFGDKFSEDFRIQFKTTIKDTANDNDITVKENESDSKLQCHISGTTNFMRNGLLEGLNEKIEKRSDLTGANSIYSVEKKISRLPKFLTVQYVRFFWKRSTNKKSKILRKVVFPFQLDVADMLTPEYAAEKVKVRDELRKVEKEKNEKEREIKRRKFDPSSSENVMTPREQYETQVALNESEKDQWLEEYKKHFPPNLEKGENPSCVYNLIGVITHQGANSESGHYQAFIRDELDENKWYKFNDDKVSVVEKEKIESLAGGGESDSALILMYKGFGL
inhibition of cyclin B degradation [1]: competent for inhibition
inhibition of degradation (cyclin B) [4]: approximately 70%
deubiquitinating activity against the model substrate Ub-AMC [5]: completely devoid of deubiquitinating activity
processing of ub-cyclin B conjugates by RP [6]: no effect on substrate processing
conjugate (ubiquitinated Cdc34) binding to the proteasome [7]: comparable conjugate binding

B2: Ubl: N-terminal ubiquitin-like domain of Ubp6 by itself (protein)
chain: MSGETFEFNIRHSGKVYPITLSTDATSADLKSKAEELTQVPSARQKYMVKGGLSGEESIKIYPLIKPGSTVMLLGTPDANLIS
inhibition of cyclin B degradation [1]: no effect on cyclin B degradation
